Assay results reported in patent US20230203162A1 (NUMAB THERAPEUTICS, published 2023).
Residue numbers refer to the chain shown, from its start. Names and notes keep the numbering of the source. Blank lines part the entries; values can stand above or below the binder they belong to.

Tests used:
[1] = biological target: biotinylated MSLN (human MSLN in the MSLN/MUC16 competition ELISA) (human, UniProt Q13421 296-598, limits assumed, biotinylated); assay: competition ELISA, scFv titrated with biotinylated MSLN; competitor coated MUC16
[2] = biological target: T1, recombinant human MSLN (purchased from Peprotech) (human, UniProt Q13421 296-598, limits assumed); assay: SPR, MSLN immobilized on CM5, scFv as analyte, 1:1 Langmuir
T1 construct: Bought protein; also called recombinant human mesothelin

[3] = biological target: T2, plasma-membranous human MSLN on cell lines (H226, HPAC, H292, OVCAR-3, MeT-5A) (human, UniProt Q13421 296-598); assay: cELISA on H226 cells, HRP-Protein L
T2 construct: whole, on cells; also called human MSLN on H226 cells; mesothelin on target cells

[4] = biological target: T3, human recombinant CD3ε protein (Sino Biological) (human, UniProt P07766 23-126); assay: SPR, CD3ε amine-coupled to CM5, antibody injected
T3 construct: Bought protein; also called recombinant human CD3ε; human CD3ε

[5] = biological target: T2, plasma-membranous human MSLN on cell …; assay: flow cytometry on Met-5A cells, protein L-PE, 4PL fit
[6] = biological target: T2, plasma-membranous human MSLN on cell …; assay: flow cytometry on H226 cells, protein L-PE, 4PL fit
[7] = biological target: human serum albumin (hSA, Sigma-Aldrich A3782) (human, UniProt P02768 25-609); assay: SPR, hSA amine-coupled to CM5, antibody injected, pH 5.5, 1:1 Langmuir
[8] = biological target: soluble mesothelin (sMSLN); assay: cell-based or functional assay
[9] = biological target: T2, plasma-membranous human MSLN on cell …; assay: cell-based or functional assay
[10] = biological target: T2, plasma-membranous human MSLN on cell …; assay: flow cytometry on OVCAR-3 cells, protein L-PE, 4PL fit
[11] = biological target: T1, recombinant human MSLN (purchased from …); assay: SPR (Biacore T200), human MSLN; which of the two formats (MSLN immobilized / antibody captured) not given

B1: anti-MSLN scFv PRO1922 (scFv)
scFv: DIQMTQSPSSLSASVGDRVTITCQASESIYSSLAWYQQKPGKAPKLLIYLASTLASGVPSRFSGSGSGTDFTLTISSLQPEDFATYYCQSTDYTTSTHRNSFGTGTKVTVLGGGGGSGGGGSGGGGSGGGGSEVQLVESGGGLVQPGGSLRLSCAASGFSFSTTYYMCWVRQAPGKGLEWIGCTNTASSVRTYYATWAKGRFTISRDNSKNTVYLQMNSLRAEDTAVYYCARDMGFADYALNLWGQGTLVTVSS
notes: also called 54-21-H03-sc01
IC50 [1]: 0.05 nM | Maximum inhibition at highest sample conc. [1]: 99.3% | rel. IC50 (IC50, Amatuximab/IC50, scFv) [1]: 0.29 ratio | Kd [2]: 0.177 nM | koff [2]: 0.00013 s⁻¹ | kon [2]: 735000 M⁻¹ s⁻¹ | EC50 [3]: 0.29 nM | rel. EC50 (EC50, Amatuximab/EC50, scFv) [3]: 0.52 ratio | rel. Maximum binding (OD450-690 nm, scFv/OD450-690 nm, Amatuximab) [3]: 0.61 ratio

B2: anti-MSLN scFv PRO2306 (scFv)
scFv: ALQMTQSPSSLSARVGDRVTIKCQASQSISNYLAWYQQKPGKPPKFLIYDASDLASGVPSRFSGSGSGRDFTLTISSLQPEDFATYYCQQVYDSNNVENVFGTGTKVTVLGGGGGSGGGGSGGGGSGGGGSQSQLVESGGGLVQPGGSLRLSCAVSGFSLSSYAMGWVRQAPGKGLEYIGYISKIGTTYYASWAKGRFTISKDNSKNTVYLQMNSLRAEDTAVYFCARGSSSGGYLDDGFDPWGQGTLVTVSS
notes: also called 54-32-A07-sc06; PRO1925-S14R-T87R-T22K
Kd [2]: 0.322 nM | koff [2]: 0.000873 s⁻¹ | kon [2]: 2.72e+06 M⁻¹ s⁻¹ | EC50 [3]: 3.05 nM | rel. EC50 (EC50, Amatuximab/EC50, scFv) [3]: 0.026 ratio | rel. Maximum binding (OD450-690 nm, scFv/OD450-690 nm, Amatuximab) [3]: 0.55 ratio

B3: anti-MSLN scFv PRO1925 (scFv)
scFv: B2 scFv with R14S, K22T, P59S, R69T
notes: also called 54-32-A07-sc02
IC50 [1]: 0.14 nM | Maximum inhibition at highest sample conc. [1]: 99.2% | rel. IC50 (IC50, Amatuximab/IC50, scFv) [1]: 0.11 ratio | Kd [2]: 0.488 nM | koff [2]: 0.000794 s⁻¹ | kon [2]: 1.63e+06 M⁻¹ s⁻¹ | EC50 [3]: 1.01 nM | rel. EC50 (EC50, Amatuximab/EC50, scFv) [3]: 0.11 ratio | rel. Maximum binding (OD450-690 nm, scFv/OD450-690 nm, Amatuximab) [3]: 0.58 ratio

B6: PRO2562 (MATCH4) (other)
chain 1: ALQMTQSPSSLSARVGDRVTIKCQASQSISNYLAWYQQKPGKPPKFLIYDASDLASGVPSRFSGSGSGRDFTLTISSLQPEDFATYYCQQVYDSNNVENVFGCGTKVTVLGGGGGSGGGGSGGGGSGGGGSQSQLVESGGGLVQPGGSLRLSCAVSGFSLSSYAMGWVRQAPGKCLEYIGYISKIGTTYYASWAKGRFTISKDNSKNTVYLQMNSLRAEDTAVYFCARGSSSGGYLDDGFDPWGQGTLVTVSSGGGGSGGGGSEVQLVESGGGLVQPGGSLRLSCAASGFSLSSYDMSWVRQAPGKGLAWIGASYASGPTYYASWAKGRFTISRDNSKNTVYLQMCSLRAEDTATYFCARGGWTGTSHSNIWGQGTLVTVSSGGGSGGGSGGGSGEVQLVESGGGLVQPGGSLRLSCAASGFSLSSYAMNWVRQAPGKCLEWIGHINAGDIAYYATWAKGRFTISRDNSKNTVYLQMNSLRAEDTAVYFCARGAGGFSTGPFKLWGQGTLVTVSS
chain 2: ALQMTQSPSSLSARVGDRVTIKCQASQSISNYLAWYQQKPGKPPKFLIYDASDLASGVPSRFSGSGSGRDFTLTISSLQPEDFATYYCQQVYDSNNVENVFGCGTKVTVLGGGGGSGGGGSGGGGSGGGGSQSQLVESGGGLVQPGGSLRLSCAVSGFSLSSYAMGWVRQAPGKCLEYIGYISKIGTTYYASWAKGRFTISKDNSKNTVYLQMNSLRAEDTAVYFCARGSSSGGYLDDGFDPWGQGTLVTVSSGGGGSGGGGSAFELTQSPSSLSASVGDRVTITCQASESINSRLAWYQQKPGQPPKLLIYDASDLTSGVPSRFSGSGSGTDFTLTISCLQPEDFATYYCQGYGGSSTTTFGCGTKLTVLGGGSGGSGGSGGSGDIQMTQSPSSLSASVGDRVTITCQSSQSVFSNNYLAWFQQKPGQSPKRLIYSASTLASGVPSRFSGSGSGTDFTLTISSLQPEDFATYYCLGSYACSSADCYVFGTGTKVTVLG
notes: Heterodimer
Kd [4]: 6.45 nM | EC50 [5]: 0.0877 nM | max. binding (MFI) [5]: 12000 MFI | EC50 [6]: 0.447 nM | max. binding (MFI) [6]: 609000 MFI | Kd [7]: 6.45 nM | koff [7]: 0.00149 s⁻¹ | kon [7]: 231000 M⁻¹ s⁻¹ | Kd [11]: 1.39 nM | koff [11]: 0.000571 s⁻¹ | kon [11]: 410000 M⁻¹ s⁻¹ | EC50 [10]: 5.55 nM | max. binding (MFI) [10]: 148000 MFI

More lines, main results first:

Kd [2]: 0.444 nM | koff [2]: 0.00138 s⁻¹ | kon [2]: 3.11e+06 M⁻¹ s⁻¹ | EC50 [3]: 1.13 nM | rel. EC50 (EC50, Amatuximab/EC50, scFv) [3]: 0.07 ratio | rel. Maximum binding (OD450-690 nm, scFv/OD450-690 nm, Amatuximab) [3]: 0.78 ratio
B4: anti-MSLN scFv PRO2309 (scFv)
scFv: B2 scFv with T103C, G175C
notes: VL/VH interdomain disulfide variant; also called 54-32-A07-sc09; PRO1925-S14R-T87R-T22K-DIS

Kd [4]: 5.71 nM | EC50 [5]: 0.157 nM | max. binding (MFI) [5]: 14500 MFI | EC50 [6]: 1.08 nM | max. binding (MFI) [6]: 686000 MFI | Kd [7]: 5.71 nM | koff [7]: 0.0016 s⁻¹ | kon [7]: 280000 M⁻¹ s⁻¹ | Fold-diff Window (mean Met-5A EC50 / mean H226 EC50) [9]: 1.7 fold | EC50 [10]: 10.7 nM | max. binding (MFI) [10]: 198000 MFI
B5: PRO2660 (MATCH4) (other)
chain 1: DIQMTQSPSSLSASVGDRVTITCQASESIYSSLAWYQQKPGKAPKLLIYLASTLASGVPSRFSGSGSGTDFTLTISSLQPEDFATYYCQSTDYTTSTHRNSFGTGTKVTVLGGGGGSGGGGSGGGGSGGGGSEVQLVESGGGLVQPGGSLRLSCAASGFSFSTTYYMCWVRQAPGKGLEWIGCTNTASSVRTYYATWAKGRFTISRDNSKNTVYLQMNSLRAEDTAVYYCARDMGFADYALNLWGQGTLVTVSSGGGGSGGGGSEVQLVESGGGLVQPGGSLRLSCAASGFSLSSYDMSWVRQAPGKGLAWIGASYASGPTYYASWAKGRFTISRDNSKNTVYLQMNSLRAEDTATYFCARGGWTGTSHSNIWGQGTLVTVSSGGGSGGGSGGGSGEVQLVESGGGLVQPGGSLRLSCAASGFSLSSYAMNWVRQAPGKCLEWIGHINAGDIAYYATWAKGRFTISRDNSKNTVYLQMNSLRAEDTAVYFCARGAGGFSTGPFKLWGQGTLVTVSS
chain 2: DIQMTQSPSSLSASVGDRVTITCQASESIYSSLAWYQQKPGKAPKLLIYLASTLASGVPSRFSGSGSGTDFTLTISSLQPEDFATYYCQSTDYTTSTHRNSFGTGTKVTVLGGGGGSGGGGSGGGGSGGGGSEVQLVESGGGLVQPGGSLRLSCAASGFSFSTTYYMCWVRQAPGKGLEWIGCTNTASSVRTYYATWAKGRFTISRDNSKNTVYLQMNSLRAEDTAVYYCARDMGFADYALNLWGQGTLVTVSSGGGGSGGGGSAFELTQSPSSLSASVGDRVTITCQASESINSRLAWYQQKPGQPPKLLIYDASDLTSGVPSRFSGSGSGTDFTLTISSLQPEDFATYYCQGYGGSSTTTFGCGTKLTVLGGGSGGSDIQMTQSPSSLSASVGDRVTITCQSSQSVFSNNYLAWFQQKPGQSPKRLIYSASTLASGVPSRFSGSGSGTDFTLTISSLQPEDFATYYCLGSYACSSADCYVFGTGTKVTVLG
notes: Heterodimer
Delta 0-50 ng/mL sMSLN (x-fold change in H226 killing potency) [8]: 12 fold | Delta 0-500 ng/mL sMSLN (x-fold change in H226 killing potency) [8]: 85.1 fold | average mean H226 EC50, cell killing (LDH release) [9]: 0.0285 nM | average mean Met-5A EC50, cell killing (LDH release) [9]: 0.0485 nM

Kd [4]: 4.78 nM | EC50 [5]: 0.0824 nM | max. binding (MFI) [5]: 11200 MFI | EC50 [6]: 0.611 nM | max. binding (MFI) [6]: 809000 MFI | Kd [7]: 8.8 nM | koff [7]: 0.00453 s⁻¹ | kon [7]: 515000 M⁻¹ s⁻¹ | Kd [11]: 1.41 nM | koff [11]: 0.000578 s⁻¹ | kon [11]: 411000 M⁻¹ s⁻¹ | Fold-diff Window (mean Met-5A EC50 / mean H226 EC50) [9]: 28.5 fold | EC50 [10]: 6.64 nM | max. binding (MFI) [10]: 170000 MFI
B7: PRO2567 (MATCH4) (other)
chain 1: AFELTQSPSSLSASVGDRVTITCQASESINSRLAWYQQKPGQPPKLLIYDASDLTSGVPSRFSGSGSGTDFTLTISSLQPEDFATYYCQGYGGSSTTTFGTGTKLTVLGGGGGSGGGGSGGGGSGGGGSEVQLVESGGGLVQPGGSLRLSCAASGFSLSSYAMNWVRQAPGKGLEWIGHINAGDIAYYATWAKGRFTISRDNSKNTVYLQMNSLRAEDTAVYFCARGAGGFSTGPFKLWGQGTLVTVSSGGGGSGGGGSEVQLVESGGGLVQPGGSLRLSCAASGFSLSSYDMSWVRQAPGKGLAWIGASYASGPTYYASWAKGRFTISRDNSKNTVYLQMNSLRAEDTATYFCARGGWTGTSHSNIWGQGTLVTVSSGGGSGGGSGGGSGQSQLVESGGGLVQPGGSLRLSCAVSGFSLSSYAMGWVRQAPGKCLEYIGYISKIGTTYYASWAKGRFTISKDNSKNTVYLQMNSLRAEDTAVYFCARGSSSGGYLDDGFDPWGQGTLVTVSS
chain 2: ALQMTQSPSSLSARVGDRVTIKCQASQSISNYLAWYQQKPGKPPKFLIYDASDLASGVPSRFSGSGSGRDFTLTISSLQPEDFATYYCQQVYDSNNVENVFGCGTKVTVLGGGGGSGGGGSGGGGSGGGGSQSQLVESGGGLVQPGGSLRLSCAVSGFSLSSYAMGWVRQAPGKCLEYIGYISKIGTTYYASWAKGRFTISKDNSKNTVYLQMNSLRAEDTAVYFCARGSSSGGYLDDGFDPWGQGTLVTVSSGGGGSGGGGSALQMTQSPSSLSARVGDRVTIKCQASQSISNYLAWYQQKPGKPPKFLIYDASDLASGVPSRFSGSGSGRDFTLTISSLQPEDFATYYCQQVYDSNNVENVFGCGTKVTVLGGGSGGSDIQMTQSPSSLSASVGDRVTITCQSSQSVFSNNYLAWFQQKPGQSPKRLIYSASTLASGVPSRFSGSGSGTDFTLTISSLQPEDFATYYCLGSYACSSADCYVFGTGTKVTVLG
notes: Heterodimer
Delta 0-50 ng/mL sMSLN (x-fold change in H226 killing potency) [8]: 3.2 fold | Delta 0-500 ng/mL sMSLN (x-fold change in H226 killing potency) [8]: 23.8 fold | average mean H226 EC50, cell killing (LDH release) [9]: 0.00346 nM | average mean Met-5A EC50, cell killing (LDH release) [9]: 0.0987 nM
